This passage reports protein stability index results from the supplement of paper PMC10567573.

The chains are these.
B1: TEKT4 (parent)
chain: YARYHQAFADRDQSERQRHESQQL
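Also: lentivirally expressed fusions sorted by FACS into six bins by GFP to DsRed ratio, PSI derived from sequencing read proportions per bin multiplied by bin number.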

Variants of B1 are the subject of this data set. The data set can be described thus: protein stability index of a GFP-peptide fusion (GPS, HEK-293T) (PSI 1-6); higher = more stable. The following applies: c terminus: a fixed tail appended.
As to YARYHQAFADPDQSERQRHESQQL [R11P], the protein stability index stood at 3.03.
As for YARYHQAFADHDQSERQRHESQQL [R11H], the figure is 2.32.
The result for YARYHQAFADDDQSERQRHESQQL [R11D] reads 3.59; that for YARYHQAFADSDQSERQRHESQQL [R11S], 2.64; that for YARYHQAFADTDQSERQRHESQQL [R11T], 2.12.
The result for YARYHQAFADFDQSERQRHESQQL [R11F] reads 1.99; that for YARYHQAFADLDQSERQRHESQQL [R11L], 1.98; that for YARYHQAFADEDQSERQRHESQQL [R11E], 3.29.
For YARYHQAFADYDQSERQRHESQQL [R11Y], the protein stability index is 1.64.
As for YARYHQAFADIDQSERQRHESQQL [R11I], the figure is 2.1; as for YARYHQAFADMDQSERQRHESQQL [R11M], 2.54; as for YARYHQAFADVDQSERQRHESQQL [R11V], 2.12.
On to YARYHQAFADADQSERQRHESQQL [R11A], for which the protein stability index amounted to 2.4.
YARYHQAFADGDQSERQRHESQQL [R11G]: the protein stability index stood at 2.82.
As for YARYHQAFADKDQSERQRHESQQL [R11K], the figure is 2.46.
As to YARYHQAFADCDQSERQRHESQQL [R11C], the protein stability index came out at 2.14.
Take YARYHQAFADQDQSERQRHESQQL [R11Q]: the protein stability index came out at 3.07.
The result for YARYHQAFADNDQSERQRHESQQL [R11N] reads 2.83; that for YARYHQAFAGRDQSERQRHESQQL [D10G], 2.37.
As for YARYHQAFAVRDQSERQRHESQQL [D10V], the figure is 2.32; as for YARYHQAFARRDQSERQRHESQQL [D10R], 2.77; as for YARYHQAFATRDQSERQRHESQQL [D10T], 1.85.
As to YARYHQAFASRDQSERQRHESQQL [D10S], the protein stability index is 2.49.
As for YARYHQAFAMRDQSERQRHESQQL [D10M], the figure is 1.97.
In the case of YARYHQAFANRDQSERQRHESQQL [D10N], the protein stability index was found to be 2.33.
For the variant YARYHQAFAYRDQSERQRHESQQL [D10Y], the protein stability index stood at 2.26.
On to YARYHQAFAQRDQSERQRHESQQL [D10Q], for which the protein stability index worked out at 2.17.
With YARYHQAFAWRDQSERQRHESQQL [D10W], the protein stability index is 2.39.
YARYHQAFALRDQSERQRHESQQL [D10L]: the protein stability index was 2.29.
Turning to YARYHQAFAKRDQSERQRHESQQL [D10K], the protein stability index is 3.05.
Regarding YARYHQAFAIRDQSERQRHESQQL [D10I], the protein stability index stood at 2.58.
The result for YARYHQAFAHRDQSERQRHESQQL [D10H] reads 2.19; that for YARYHQAFADRDQSERKRHESQQL [Q17K], 2.13.
Take YARYHQAFADRDQSERARHESQQL [Q17A]: the protein stability index came out at 2.
Turning to YARYHQAFADRDQSERIRHESQQL [Q17I], the protein stability index came out at 2.34.
On to YARYHQAFADRDQSERSRHESQQL [Q17S], for which the protein stability index came out at 1.87.
As for YARYHQAFADRDQSERMRHESQQL [Q17M], the figure is 1.73; as for YARYHQAFADRDQSERFRHESQQL [Q17F], 2.56.
For the variant YARYHQAFADRDQSERPRHESQQL [Q17P], the protein stability index amounted to 2.11.
YARYHQAFADRDQSERNRHESQQL [Q17N]: the protein stability index is 1.68.
As for YARYHQAFADRDQSERTRHESQQL [Q17T], the figure is 2; as for YARYHQAFADRDQSERLRHESQQL [Q17L], 2.32; as for YARYHQAFADRDQSERERHESQQL [Q17E], 1.63.
The result for YARYHQAFADRDQSERVRHESQQL [Q17V] reads 2.31; that for YARYHQAFADRDQSERRRHESQQL [Q17R], 1.94; that for YARYHQAFADRDQSERDRHESQQL [Q17D], 2.21.
On to YARYHQAFADRDQSERCRHESQQL [Q17C], for which the protein stability index is 2.07.
The result for YARYHQAFADRDQSERGRHESQQL [Q17G] reads 1.87; that for YARYHQAFADRDQSERHRHESQQL [Q17H], 1.9.
YARYHQAFADRDQSERYRHESQQL [Q17Y]: the protein stability index worked out at 2.72.
Turning to YARYHQAFADRDQSERWRHESQQL [Q17W], the protein stability index was determined as 2.22.
The result for YARYHQAFADRDQSERQRMESQQL [H19M] reads 2.35; that for YARYHQAFADRDQSERQRLESQQL [H19L], 1.65.
YARYHQAFADRDQSERQRIESQQL [H19I]: the protein stability index worked out at 2.53.
Regarding YARYHQAFADRDQSERQRAESQQL [H19A], the protein stability index turned out to be 2.11.
The result for YARYHQAFADRDQSERQREESQQL [H19E] reads 2.19; that for YARYHQAFADRDQSERQRNESQQL [H19N], 2.08; that for YARYHQAFADRDQSERQRFESQQL [H19F], 1.48.
The result for YARYHQAFADRDQSERQRSESQQL [H19S] reads 2.25; that for YARYHQAFADRDQSERQRRESQQL [H19R], 2.05; that for YARYHQAFADRDQSERQRTESQQL [H19T], 1.97.
For the variant YARYHQAFADRDQSERQRDESQQL [H19D], the protein stability index is 2.25.
As for YARYHQAFADRDQSERQRGESQQL [H19G], the figure is 2.64.
As for YARYHQAFADRDQSERQRQESQQL [H19Q], the figure is 2.51; as for YARYHQAFADRDQSERQRPESQQL [H19P], 2.51; as for YARYHQAFADRDQSERQRCESQQL [H19C], 2.39.
Regarding YARYHQAFADRDQSERQRYESQQL [H19Y], the protein stability index was 1.61.
Consider YARYHQAFADRDQSERQRKESQQL [H19K], for which the protein stability index came out at 2.63.
As for YARYHQAFADRDQSERQRWESQQL [H19W], the protein stability index is 1.94.
In the case of YARYHQAFADRDQSERQRVESQQL [H19V], the protein stability index turned out to be 2.31.
The result for YARYHQAFADRDQAERQRHESQQL [S14A] reads 1.88; that for YARYHQAFADRDQPERQRHESQQL [S14P], 3.2; that for YARYHQAFADRDQFERQRHESQQL [S14F], 1.48.
On to YARYHQAFADRDQVERQRHESQQL [S14V], for which the protein stability index amounted to 2.31.
The result for YARYHQAFADRDQRERQRHESQQL [S14R] reads 1.63; that for YARYHQAFADRDQMERQRHESQQL [S14M], 1.79.
The result for YARYHQAFADRDQKERQRHESQQL [S14K] reads 2.22.
Take YARYHQAFADRDQEERQRHESQQL [S14E]: the protein stability index is 2.59.
The result for YARYHQAFADRDQHERQRHESQQL [S14H] reads 1.99; that for YARYHQAFADRDQWERQRHESQQL [S14W], 1.71.
Regarding YARYHQAFADRDQGERQRHESQQL [S14G], the protein stability index was determined as 1.8.
As for YARYHQAFADRDQTERQRHESQQL [S14T], the figure is 2.37; as for YARYHQAFADRDQDERQRHESQQL [S14D], 2.76.
On to YARYHQAFADRDQLERQRHESQQL [S14L], for which the protein stability index came to 2.72.
For the variant YARYHQAFADRDQQERQRHESQQL [S14Q], the protein stability index was determined as 2.13.
On to YARYHQAFADRDQIERQRHESQQL [S14I], for which the protein stability index stood at 2.16.
The result for YARYHQAFADRDQYERQRHESQQL [S14Y] reads 2.07; that for YARYHQAFADRDQNERQRHESQQL [S14N], 2.21; that for YARYHQAFADRDQCERQRHESQQL [S14C], 1.46.
For YARYHQAFADRDQSERQRHCSQQL [E20C], the protein stability index is 2.01.
Take YARYHQAFADRDQSERQRHFSQQL [E20F]: the protein stability index amounted to 1.76.
As for YARYHQAFADRDQSERQRHDSQQL [E20D], the figure is 2.36; as for YARYHQAFADRDQSERQRHASQQL [E20A], 2.51.
Take YARYHQAFADRDPSERQRHESQQL [Q13P]: the protein stability index is 2.36.
